From PMC9482650, “Quantitative fragmentomics allow affinity mapping of interactomes” (Nature Communications, 2022)

Assays:
Assay in all cases: holdup assay
Set-up in all cases: key: below the threshold = too weak to quantify, mostly under pKd 3.1 to 4
APBA2_1, Q99767 = target: T1, APBA2_1, Q99767
T1 sequence (Q99767 563-664, limits assumed, looked up): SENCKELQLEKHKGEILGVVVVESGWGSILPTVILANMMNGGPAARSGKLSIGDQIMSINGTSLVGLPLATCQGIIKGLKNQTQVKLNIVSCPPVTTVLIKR

CASK, O14936 = target: CASK, O14936
DFNB31_1, Q9P202 = target: T2, DFNB31_1, Q9P202
T2 sequence (Q9P202 135-233, limits assumed, looked up): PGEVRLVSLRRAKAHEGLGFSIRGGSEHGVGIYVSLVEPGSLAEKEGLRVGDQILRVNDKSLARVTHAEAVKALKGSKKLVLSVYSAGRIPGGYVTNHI

DFNB31_3, Q9P202 = target: T3, DFNB31_3, Q9P202
T3 sequence (Q9P202 811-907, limits assumed, looked up): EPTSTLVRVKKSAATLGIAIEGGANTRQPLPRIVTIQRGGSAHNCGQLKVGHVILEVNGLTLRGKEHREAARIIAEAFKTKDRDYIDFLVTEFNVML

DLG1_1, Q12959 = target: DLG1_1, Q12959
DLG2_2, Q15700 = target: DLG2_2, Q15700
DLG2_2, Q15700, sequence (Q15700 189-283): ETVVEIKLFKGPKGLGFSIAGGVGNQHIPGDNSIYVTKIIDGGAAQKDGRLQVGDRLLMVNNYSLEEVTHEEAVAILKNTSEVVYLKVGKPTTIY

DLG3_1, Q92796 = target: T4, DLG3_1, Q92796
T4 sequence (Q92796 125-227, limits assumed, looked up): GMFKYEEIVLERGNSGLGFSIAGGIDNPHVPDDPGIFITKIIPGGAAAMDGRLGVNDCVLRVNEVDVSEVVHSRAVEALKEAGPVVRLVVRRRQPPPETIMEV

FRMPD2_3, Q68DX3 = target: FRMPD2_3, Q68DX3
FRMPD2_3, Q68DX3, sequence (Q68DX3 1073-1166): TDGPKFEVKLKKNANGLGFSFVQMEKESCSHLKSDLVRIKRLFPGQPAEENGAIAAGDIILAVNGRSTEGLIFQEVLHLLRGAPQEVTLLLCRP

GOPC, Q9HD26 = target: GOPC, Q9HD26
GORASP1, Q9BQQ3 = target: GORASP1, Q9BQQ3
GORASP1, Q9BQQ3, sequence (Q9BQQ3 1-208): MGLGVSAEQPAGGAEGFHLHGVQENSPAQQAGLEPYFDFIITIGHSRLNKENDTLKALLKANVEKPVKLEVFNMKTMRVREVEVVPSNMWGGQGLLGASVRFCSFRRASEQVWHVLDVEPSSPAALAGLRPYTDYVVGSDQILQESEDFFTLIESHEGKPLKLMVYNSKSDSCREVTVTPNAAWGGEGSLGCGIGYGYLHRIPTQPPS

HTRA2, O43464 = target: HTRA2, O43464
HTRA2, O43464, sequence (O43464 355-458): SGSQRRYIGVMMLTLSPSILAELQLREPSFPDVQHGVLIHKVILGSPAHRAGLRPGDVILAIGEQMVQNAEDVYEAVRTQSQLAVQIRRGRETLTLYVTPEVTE

Inadl_5, Q8NI35 = target: Inadl_5, Q8NI35
Inadl_5, Q8NI35, sequence (Q8NI35 673-780): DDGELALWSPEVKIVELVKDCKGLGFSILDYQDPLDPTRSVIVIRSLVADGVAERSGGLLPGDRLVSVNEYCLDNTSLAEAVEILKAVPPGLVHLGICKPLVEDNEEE

Inadl_8, Q8NI35 = target: Inadl_8, Q8NI35
Inadl_8, Q8NI35, sequence (Q8NI35 1425-1530): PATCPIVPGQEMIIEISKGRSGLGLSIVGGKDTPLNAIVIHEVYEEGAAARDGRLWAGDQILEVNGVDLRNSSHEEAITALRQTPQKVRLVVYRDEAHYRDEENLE

Inadl_9, Q8NI35 = target: Inadl_9, Q8NI35
Inadl_9, Q8NI35, sequence (Q8NI35 1530-1615): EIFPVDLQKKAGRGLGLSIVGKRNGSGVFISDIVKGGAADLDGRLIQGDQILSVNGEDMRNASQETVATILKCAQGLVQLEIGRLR

LDB3, O75112 = target: LDB3, O75112
LDB3, O75112, sequence (O75112 1-94): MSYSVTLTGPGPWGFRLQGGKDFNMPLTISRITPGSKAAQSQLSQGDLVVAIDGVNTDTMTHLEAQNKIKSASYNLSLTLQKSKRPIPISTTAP

LIN7C, Q9NUP9 = target: T5, LIN7C, Q9NUP9
T5 sequence (Q9NUP9 88-185, limits assumed, looked up): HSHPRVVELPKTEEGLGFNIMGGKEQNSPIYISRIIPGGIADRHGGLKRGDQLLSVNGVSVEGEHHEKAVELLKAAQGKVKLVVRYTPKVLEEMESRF

LNX2_2, Q8N448 = target: T6, LNX2_2, Q8N448
T6 sequence (Q8N448 334-432, limits assumed, looked up): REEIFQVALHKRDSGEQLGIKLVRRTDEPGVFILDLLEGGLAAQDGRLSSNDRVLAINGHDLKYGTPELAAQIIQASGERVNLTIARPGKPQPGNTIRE

MAGI1_2, Q96QZ7 = target: MAGI1_2, Q96QZ7
MAGI1_2, Q96QZ7, sequence (Q96QZ7 456-580): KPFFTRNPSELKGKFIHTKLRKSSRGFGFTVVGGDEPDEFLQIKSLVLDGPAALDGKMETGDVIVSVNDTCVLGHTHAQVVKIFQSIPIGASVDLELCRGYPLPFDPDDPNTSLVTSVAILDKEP

MAGI2_2, Q86UL8 = target: MAGI2_2, Q86UL8
MAGI2_2, Q86UL8, sequence (Q86UL8 410-522): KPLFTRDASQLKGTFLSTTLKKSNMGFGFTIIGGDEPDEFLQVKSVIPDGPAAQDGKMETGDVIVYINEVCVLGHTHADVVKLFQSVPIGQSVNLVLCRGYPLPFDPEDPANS

MAGI2_6, Q86UL8 = target: MAGI2_6, Q86UL8
MAGI2_6, Q86UL8, sequence (Q86UL8 1141-1229): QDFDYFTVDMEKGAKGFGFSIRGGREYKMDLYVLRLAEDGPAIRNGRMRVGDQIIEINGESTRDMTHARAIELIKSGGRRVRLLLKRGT

MAST1, Q9Y2H9 = target: MAST1, Q9Y2H9
MAST1, Q9Y2H9, sequence (Q9Y2H9 962-1065): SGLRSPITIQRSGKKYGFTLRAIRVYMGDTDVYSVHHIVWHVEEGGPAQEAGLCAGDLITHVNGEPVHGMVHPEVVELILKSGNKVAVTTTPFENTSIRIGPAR

MPP2, Q14168 = target: T7, MPP2, Q14168
T7 sequence (Q14168 180-250, limits assumed, looked up): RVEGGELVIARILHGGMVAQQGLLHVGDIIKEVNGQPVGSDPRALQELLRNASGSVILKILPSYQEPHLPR

MPP6, Q9NZW5 = target: T8, MPP6, Q9NZW5
T8 sequence (Q9NZW5 125-219, limits assumed, looked up): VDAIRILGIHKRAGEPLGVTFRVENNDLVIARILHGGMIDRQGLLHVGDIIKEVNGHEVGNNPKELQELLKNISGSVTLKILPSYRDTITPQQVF

NOS1, P29475 = target: NOS1, P29475
NOS1, P29475, sequence (P29475 9-101): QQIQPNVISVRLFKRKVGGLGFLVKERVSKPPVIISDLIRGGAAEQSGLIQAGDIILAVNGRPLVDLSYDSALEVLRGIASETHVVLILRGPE

PICK1, Q9NRD5 = target: PICK1, Q9NRD5
PICK1, Q9NRD5, sequence (Q9NRD5 17-115): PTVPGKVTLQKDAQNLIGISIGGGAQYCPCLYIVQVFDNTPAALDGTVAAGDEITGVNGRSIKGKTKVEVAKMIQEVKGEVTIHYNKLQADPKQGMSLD

PTPN13_1, Q12923 = target: T9, PTPN13_1, Q12923
T9 sequence (Q12923 1088-1188, limits assumed, looked up): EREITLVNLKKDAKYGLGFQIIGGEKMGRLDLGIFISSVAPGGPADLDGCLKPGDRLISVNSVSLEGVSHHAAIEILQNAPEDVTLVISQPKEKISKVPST

PTPN3, P26045 = target: PTPN3, P26045
PTPN3, P26045, sequence (P26045 505-587): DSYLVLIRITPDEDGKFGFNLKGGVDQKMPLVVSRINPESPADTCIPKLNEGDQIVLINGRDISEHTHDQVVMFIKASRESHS

SNTA1, Q13424 = target: T10, SNTA1, Q13424
T10 sequence (Q13424 82-180, limits assumed, looked up): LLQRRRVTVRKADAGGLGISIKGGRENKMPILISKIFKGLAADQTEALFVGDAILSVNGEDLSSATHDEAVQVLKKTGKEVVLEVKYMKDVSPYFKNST

TJP1_3, Q07157 = target: TJP1_3, Q07157
TJP1_3, Q07157, sequence (Q07157 416-512): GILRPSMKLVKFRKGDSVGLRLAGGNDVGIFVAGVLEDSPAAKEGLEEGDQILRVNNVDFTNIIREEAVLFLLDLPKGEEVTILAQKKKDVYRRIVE

[1] = plain residues with an end cap or a label only (N-terminal biotin on a linker: ahx)
[2] = plain residues with an end cap or a label only (N-terminal biotin on a linker: ttds)

CASK, O14936, sequence (O14936 487-570): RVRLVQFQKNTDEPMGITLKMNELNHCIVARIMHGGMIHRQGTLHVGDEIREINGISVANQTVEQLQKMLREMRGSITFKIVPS

B1: DLL1, O00548 (peptide)
chain: KDECVIATEV
pKd (APBA2_1, Q99767; [1]): below the threshold | pKd (CASK, O14936; [1]): below the threshold | pKd (DFNB31_1, Q9P202; [1]): below the threshold | pKd (DFNB31_3, Q9P202; [1]): below the threshold | pKd (DLG1_1, Q12959; [1]): 3.72 | pKd (DLG2_2, Q15700; [1]): 3.62 | pKd (DLG3_1, Q92796; [1]): below the threshold | pKd (FRMPD2_3, Q68DX3; [1]): below the threshold | pKd (GOPC, Q9HD26; [1]): below the threshold | pKd (GORASP1, Q9BQQ3; [1]): below the threshold | pKd (HTRA2, O43464; [1]): below the threshold | pKd (Inadl_5, Q8NI35; [1]): below the threshold | pKd (Inadl_8, Q8NI35; [1]): 3.64 | pKd (Inadl_9, Q8NI35; [1]): 3.87 | pKd (LDB3, O75112; [1]): below the threshold | pKd (LIN7C, Q9NUP9; [1]): below the threshold | pKd (LNX2_2, Q8N448; [1]): 4.27 | pKd (MAGI1_2, Q96QZ7; [1]): below the threshold | pKd (MAGI2_2, Q86UL8; [1]): below the threshold | pKd (MAGI2_6, Q86UL8; [1]): 4.55 | pKd (MAST1, Q9Y2H9; [1]): 4.38 | pKd (MPP2, Q14168; [1]): below the threshold | pKd (MPP6, Q9NZW5; [1]): below the threshold | pKd (NOS1, P29475; [1]): 3.55 | pKd (PICK1, Q9NRD5; [1]): below the threshold | pKd (PTPN13_1, Q12923; [1]): below the threshold | pKd (PTPN3, P26045; [1]): 4.2 | pKd (SNTA1, Q13424; [1]): below the threshold | pKd (TJP1_3, Q07157; [1]): below the threshold

B2: GDA, Q9Y2T3 (peptide)
chain: KQVVPFSSSV
pKd (APBA2_1, Q99767; [2]): below the threshold | pKd (CASK, O14936; [2]): below the threshold | pKd (DFNB31_1, Q9P202; [2]): below the threshold | pKd (DFNB31_3, Q9P202; [2]): below the threshold | pKd (DLG1_1, Q12959; [2]): 3.89 | pKd (DLG2_2, Q15700; [2]): 3.89 | pKd (DLG3_1, Q92796; [2]): below the threshold | pKd (FRMPD2_3, Q68DX3; [2]): below the threshold | pKd (GOPC, Q9HD26; [2]): 3.65 | pKd (GORASP1, Q9BQQ3; [2]): below the threshold | pKd (HTRA2, O43464; [2]): below the threshold | pKd (Inadl_5, Q8NI35; [2]): below the threshold | pKd (Inadl_8, Q8NI35; [2]): 4.89 | pKd (Inadl_9, Q8NI35; [2]): 3.52 | pKd (LDB3, O75112; [2]): below the threshold | pKd (LIN7C, Q9NUP9; [2]): below the threshold | pKd (LNX2_2, Q8N448; [2]): 3.65 | pKd (MAGI1_2, Q96QZ7; [2]): below the threshold | pKd (MAGI2_2, Q86UL8; [2]): below the threshold | pKd (MAGI2_6, Q86UL8; [2]): 4.02 | pKd (MAST1, Q9Y2H9; [2]): 4.04 | pKd (MPP2, Q14168; [2]): below the threshold | pKd (MPP6, Q9NZW5; [2]): below the threshold | pKd (NOS1, P29475; [2]): below the threshold | pKd (PICK1, Q9NRD5; [2]): below the threshold | pKd (PTPN13_1, Q12923; [2]): below the threshold | pKd (PTPN3, P26045; [2]): 4.24 | pKd (SNTA1, Q13424; [2]): below the threshold | pKd (TJP1_3, Q07157; [2]): below the threshold

B3: ARVCF, O00192 (peptide)
chain: AKPQPVDSWV
pKd (APBA2_1, Q99767; [1]): below the threshold | pKd (CASK, O14936; [1]): below the threshold | pKd (DFNB31_1, Q9P202; [1]): 4.28 | pKd (DFNB31_3, Q9P202; [1]): below the threshold | pKd (DLG1_1, Q12959; [1]): 4.29 | pKd (DLG2_2, Q15700; [1]): below the threshold | pKd (DLG3_1, Q92796; [1]): 4.09 | pKd (FRMPD2_3, Q68DX3; [1]): below the threshold | pKd (GOPC, Q9HD26; [1]): below the threshold | pKd (GORASP1, Q9BQQ3; [1]): 4 | pKd (HTRA2, O43464; [1]): 3.68 | pKd (Inadl_5, Q8NI35; [1]): below the threshold | pKd (Inadl_8, Q8NI35; [1]): 3.87 | pKd (Inadl_9, Q8NI35; [1]): 3.74 | pKd (LDB3, O75112; [1]): below the threshold | pKd (LIN7C, Q9NUP9; [1]): below the threshold | pKd (LNX2_2, Q8N448; [1]): 4.44 | pKd (MAGI1_2, Q96QZ7; [1]): below the threshold | pKd (MAGI2_2, Q86UL8; [1]): below the threshold | pKd (MAGI2_6, Q86UL8; [1]): 5.48 | pKd (MAST1, Q9Y2H9; [1]): below the threshold | pKd (MPP2, Q14168; [1]): below the threshold | pKd (MPP6, Q9NZW5; [1]): below the threshold | pKd (NOS1, P29475; [1]): 3.85 | pKd (PICK1, Q9NRD5; [1]): below the threshold | pKd (PTPN13_1, Q12923; [1]): below the threshold | pKd (PTPN3, P26045; [1]): 4.94 | pKd (SNTA1, Q13424; [1]): below the threshold | pKd (TJP1_3, Q07157; [1]): 3.62
